# Measurements reported in article PMC4072347 (Biochemistry, 2014).
# Target: human methemoglobin (metHb) (human, UniProt P69905;P68871)
# Test: SEC
# human methemoglobin (metHb), sequence (P69905 whole entry, chain 1 of 2): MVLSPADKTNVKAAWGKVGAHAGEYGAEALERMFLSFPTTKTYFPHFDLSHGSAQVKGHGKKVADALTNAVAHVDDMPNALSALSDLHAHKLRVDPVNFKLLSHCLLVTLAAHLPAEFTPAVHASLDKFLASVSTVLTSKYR
# human methemoglobin (metHb), sequence (P68871 whole entry, chain 2 of 2): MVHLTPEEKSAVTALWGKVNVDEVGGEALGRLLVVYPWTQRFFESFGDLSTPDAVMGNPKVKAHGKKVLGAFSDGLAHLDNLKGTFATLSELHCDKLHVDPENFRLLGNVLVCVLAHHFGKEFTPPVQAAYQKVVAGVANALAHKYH
row,Binder,stoichiometry N
1,"IsdH NEAT1 (IsdH^N1), residues Ala86-Leu229 (domain or fragment) ADESLKDAIKDPALENKEHDIGPREQVNFQLLDKNNETQYYHFFSIKDPADVYYTKKKAEVELDINTASTWKKFEVYENNQKLPVRLVSYSPVPEDHAYIRFPVSDGTQELKIVSSTQIDDGEETNYDYTKLVFAKPIYNDPSL",1 IsdH NEAT domain per metHb (alpha/beta dimer)
2,"IsdB^N1-L, IsdB residues Leu125-Asn339 (NEAT 1 domain with the linker) (domain or fragment) LNQELREAIKNPAIKDKDHSAPNSRPIDFEMKKKDGTQQFYHYASSVKPARVIFTDSKPEIELGLQSGQFWRKFEVYEGDKKLPIKLVSYDTVKDYAYIRFSVSNGTKAVKIVSSTHFNNKEEKYDYTLMEFAQPIYNSADKFKTEEDYKAEKLLAPYKKAKTLERQVYELNKIQDKLPEKLKAEYKKKLEDTKKALDEQVKSAITEFQNVQPTN",< 1 IsdB^N1-L per metHb
3,"IsdH NEAT2 (IsdH^N2), residues Gln321-Asn464 (domain or fragment) QQYPPADESLQDAIKNPAIIDKEHTADNWRPIDFQMKNDKGERQFYHYASTVEPATVIFTKTGPIIELGLKTASTWKKFEVYEGDKKLPVELVSYDSDKDYAYIRFPVSNGTREVKIVSSIEYGENIHEDYDYTLMVFAQPITN",1 IsdH NEAT domain per metHb (alpha/beta dimer)
